# Test results reported in patent US9512212 (ARIZONA BOARD OF REGENTS A BODY CORPORATE OF THE STATE OF …, dated 2016).
# What was measured:
# β-amyloid (Aβ) [1] = biological target: T1, β-amyloid (Aβ) (UniProt P05067 672-711, limits assumed); assay: not stated (standard affinity maturation)
# T1 construct: Aβ is a fragment of it; also called beta amyloid; Ab40
# β-amyloid (Aβ) [2] = biological target: T1, β-amyloid (Aβ); assay: not stated (clone from standard affinity maturation of H1)
# T1 sequence (P05067 672-711 limits assumed): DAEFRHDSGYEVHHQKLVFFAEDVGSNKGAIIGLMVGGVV
binder,measurement,setting,value
"H1v2 anti-Ab40 scFv (scFv, also called H1v2 clone) scFv: MAEVQLVESGGGVVRPGGSLRLSCAASGFTFDDYGMSWVRQAPGKGLEWVSGINWNGGSTGYADSVKGRFTISRDNAKNSLYLQMNSLRAEDTAVYYCARRRYALDYWGQGTLVTVSRGGGGSGGGGSGGGGSSELTQDPAVSVALGQTVRITCQGDSLRSYYASWYQQKPGQAPVLVIYGKNNRPSGIPDRFSGSSSGNTASLTITGAQAEDEADYYCNSRDSSGNHVVFGGGTKLTVLG",fold increase in affinity over the parent H1 scFv,β-amyloid (Aβ) [1],~5 fold
same,Kd,β-amyloid (Aβ) [2],247 nM
